This passage reports ligand-dependent change in transcription of a C7-Cf2 TATA luciferase reporter, tamoxifen-dependent repression of the erbB-2 promoter (luciferase) and erbB-2 promoter luciferase activity in HeLa cells, on addition of Tamoxifen results from US7329728.

Targets include Cf2-PBD-VP64 (human) (UniProt P06401); ER-KRAB (mouse; human) (UniProt P19785); ER-VP64 (mouse) (UniProt P19785).
Common to all, as to test: cell-based or functional assay

Cf2-PBD-VP64 (human), sequence (P06401 640-914): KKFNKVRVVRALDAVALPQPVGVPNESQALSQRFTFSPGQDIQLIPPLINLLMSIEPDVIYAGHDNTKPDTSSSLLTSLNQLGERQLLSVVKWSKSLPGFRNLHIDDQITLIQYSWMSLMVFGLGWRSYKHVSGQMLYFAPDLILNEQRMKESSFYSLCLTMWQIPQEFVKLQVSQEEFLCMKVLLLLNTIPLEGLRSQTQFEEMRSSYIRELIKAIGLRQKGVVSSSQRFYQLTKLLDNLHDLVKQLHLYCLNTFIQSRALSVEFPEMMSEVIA
C7-PBD-VP64, sequence (P06401 640-914): as above
ER-VP64 (mouse), sequence (P19785 282-599 G525R): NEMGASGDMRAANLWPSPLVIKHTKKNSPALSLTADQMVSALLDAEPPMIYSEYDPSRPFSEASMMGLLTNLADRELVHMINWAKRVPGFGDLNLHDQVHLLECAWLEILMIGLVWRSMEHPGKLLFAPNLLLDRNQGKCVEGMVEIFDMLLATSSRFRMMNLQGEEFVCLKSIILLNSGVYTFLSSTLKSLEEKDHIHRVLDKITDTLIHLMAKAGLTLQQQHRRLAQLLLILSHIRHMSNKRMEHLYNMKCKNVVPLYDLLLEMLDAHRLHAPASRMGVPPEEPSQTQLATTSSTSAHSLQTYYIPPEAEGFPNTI
ER-KRAB (mouse; human), sequence (P19785 other isoform, or with tags, fused parts or gaps): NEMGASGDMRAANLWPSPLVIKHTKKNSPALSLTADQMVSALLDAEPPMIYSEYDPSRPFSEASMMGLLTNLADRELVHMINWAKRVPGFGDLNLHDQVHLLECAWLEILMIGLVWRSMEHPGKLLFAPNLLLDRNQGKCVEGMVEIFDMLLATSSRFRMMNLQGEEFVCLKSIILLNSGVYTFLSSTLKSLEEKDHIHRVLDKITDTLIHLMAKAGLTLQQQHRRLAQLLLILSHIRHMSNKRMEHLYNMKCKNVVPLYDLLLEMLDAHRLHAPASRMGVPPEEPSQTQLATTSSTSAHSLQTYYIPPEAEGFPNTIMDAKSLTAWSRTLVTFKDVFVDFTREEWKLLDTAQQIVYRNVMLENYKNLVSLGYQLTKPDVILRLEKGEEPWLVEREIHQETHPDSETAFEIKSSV

As for “C7-PBD-VP64 (from UniProt P06401 640-914)”, the ligand-dependent change in transcription of a C7-Cf2 TATA luciferase reporter with Cf2-PBD-VP64 (human) worked out at 2 fold.

The substance E2C-ER (from UniProt P19785 282-599) yielded a tamoxifen-dependent repression of the erbB-2 promoter (luciferase) in the test with ER-KRAB (mouse; human) of 2.9 fold. Further, the erbB-2 promoter luciferase activity in HeLa cells, on addition of Tamoxifen in the test with ER-VP64 (mouse) turned out to be 3 fold.
